# Experimental data reported in patent US20140287989A1 (CENTRE NATIONAL DE LA RECHERCHE SCIENTIFIQUE, published 2014).
# Square brackets hold non-standard residues; d marks the D form. Phe(3,4-Cl2) = N[C@@H](Cc1ccc(Cl)c(Cl)c1)C(=O)O; Phe(4-Br) = N[C@@H](Cc1ccc(Br)cc1)C(=O)O; Phe(4-Cl) = N[C@@H](Cc1ccc(Cl)cc1)C(=O)O; Phe(4-Me) = Cc1ccc(C[C@H](N)C(=O)O)cc1; Cha = N[C@@H](CC1CCCCC1)C(=O)O
# B1: P12 (Ac-Gln-Cha-Asp-Leu-pClPhe-OH) (peptide)
# peptide: Ac-Q[Cha]DL[Phe(4-Cl)]-OH
# SMILES: CC(=O)N[C@@H](CCC(N)=O)C(=O)N[C@@H](CC1CCCCC1)C(=O)N[C@@H](CC(=O)O)C(=O)N[C@@H](CC(C)C)C(=O)N[C@@H](Cc1ccc(Cl)cc1)C(=O)O
# notes: also called AcQChaDLpClF; Ac-Q Cha DL pClF
# B2: P13 (Ac-Gln-Cha-Asp-Leu-pBrPhe-OH) (peptide)
# peptide: Ac-Q[Cha]DL[Phe(4-Br)]-OH
# SMILES: CC(=O)N[C@@H](CCC(N)=O)C(=O)N[C@@H](CC1CCCCC1)C(=O)N[C@@H](CC(=O)O)C(=O)N[C@@H](CC(C)C)C(=O)N[C@@H](Cc1ccc(Br)cc1)C(=O)O
# notes: also called AcQChaDLpBrF; Ac-Q Cha DL pBrF
# B3: P7 (Ac Q Cha DLF) (peptide)
# peptide: Ac-Q[Cha]DLF-OH
# SMILES: CC(=O)N[C@@H](CCC(N)=O)C(=O)N[C@@H](CC1CCCCC1)C(=O)N[C@@H](CC(=O)O)C(=O)N[C@@H](CC(C)C)C(=O)N[C@@H](Cc1ccccc1)C(=O)O
# notes: also called Ac-Gln-Cha-Asp-Leu-Phe-OH
# B4: P1, natural C-terminal heptapeptide of E. coli DNA polymerase IV (RQLVLGL) (peptide)
# peptide: H-RQLVLGL-OH
# notes: Used free in solution as challenger and immobilised on the SPR chip; the way of immobilisation is not described; also called natural Cter heptamer; natural heptapeptide
# B5: P7 (Ac-Gln-Cha-Asp-Leu-Phe-OH) (peptide)
# peptide: Ac-Q[Cha]DLF-OH
# SMILES: CC(=O)N[C@@H](CCC(N)=O)C(=O)N[C@@H](CC1CCCCC1)C(=O)N[C@@H](CC(=O)O)C(=O)N[C@@H](CC(C)C)C(=O)N[C@@H](Cc1ccccc1)C(=O)O
# notes: also called AcQChaDLF; Ac Q Cha D L F
# B6: P11 (Ac-Gln-Cha-Asp-Leu-pMePhe-OH) (peptide)
# peptide: Ac-Q[Cha]DL[Phe(4-Me)]-OH
# SMILES: CC(=O)N[C@@H](CCC(N)=O)C(=O)N[C@@H](CC1CCCCC1)C(=O)N[C@@H](CC(=O)O)C(=O)N[C@@H](CC(C)C)C(=O)N[C@@H](Cc1ccc(C)cc1)C(=O)O
# notes: also called AcQChaDLpMeF; Ac-Q Cha DL pMeF
# B7: P14 (Ac-Gln-Cha-Asp-Leu-(3,4-di-Cl)Phe-OH) (peptide)
# peptide: Ac-Q[Cha]DL[Phe(3,4-Cl2)]-OH
# SMILES: CC(=O)N[C@@H](CCC(N)=O)C(=O)N[C@@H](CC1CCCCC1)C(=O)N[C@@H](CC(=O)O)C(=O)N[C@@H](CC(C)C)C(=O)N[C@@H](Cc1ccc(Cl)c(Cl)c1)C(=O)O
# notes: also called AcQChaDLdiClF; Ac Q Cha D L diClF
# What was measured:
# [1] = target: E. coli β clamp (β subunit of DNA polymerase III, dnaN gene product), N-tagged (E. coli) (UniProt P0A988); assay: ITC
# [2] = target: E. coli β clamp (β subunit of DNA polymerase III, dnaN gene product), N-tagged (E. coli) (UniProt P0A988)
# [3] = target: E. coli β clamp (β subunit of DNA polymerase III, dnaN gene product), N-tagged (E. coli) (UniProt P0A988); assay: ITC / SPR
# [4] = target: E. coli β clamp (β subunit of DNA polymerase III, dnaN gene product), N-tagged (E. coli) (UniProt P0A988); assay: SPR competition on immobilised P1
# [5] = target: E. coli β clamp (β subunit of DNA polymerase III, dnaN gene product), N-tagged (E. coli) (UniProt P0A988); assay: ITC, peptide 400 µM into β ring 20 or 30 µM, 25° C
# [6] = target: E. coli β clamp (β subunit of DNA polymerase III, dnaN gene product) (E. coli) (UniProt P0A988); assay: SPR competition, β ring on immobilised P1
# [7] = target: E. coli β clamp (β subunit of DNA polymerase III, dnaN gene product) (E. coli) (UniProt P0A988); assay: ITC, peptide 400 µM into β ring 30 µM, 25 °C
# [8] = target: E. coli β clamp (β subunit of DNA polymerase III, dnaN gene product), N-tagged (E. coli) (UniProt P0A988); assay: SPR competition on immobilised P1; ΔG = -RT ln Ki
# [9] = target: E. coli β clamp (β subunit of DNA polymerase III, dnaN gene product) (E. coli) (UniProt P0A988); assay: ITC, peptide 400 µM into β ring 30 µM, 25 °C, second experiment
# [10] = target: E. coli β clamp (β subunit of DNA polymerase III, dnaN gene product), N-tagged (E. coli) (UniProt P0A988); assay: SPR competition (Biacore 3000): β ring 0.25 µM mixed with the challenger, injected on immobilised P1
# [11] = target: T1, E. coli β clamp (β subunit of DNA polymerase III, dnaN gene product) (E. coli, UniProt P0A988 1-366); assay: from ITC data; compared residues F/pClF
# T1 construct: Expressed in BL21 E. coli from pET15b with an N-terminal tag; also called β ring; β protein; not shown: N-terminal tag from plasmid pET15b ('N-tagged protein', purified on Ni-NTA)
# [12] = target: T1, E. coli β clamp (β subunit of DNA …); assay: SPR competition, β ring on immobilised P1
# [13] = target: T1, E. coli β clamp (β subunit of DNA …); assay: from ITC data; compared residues pBrF/pClF
# [14] = target: T1, E. coli β clamp (β subunit of DNA …); assay: from ITC data; compared residues pMeF/pClF
# [15] = target: T1, E. coli β clamp (β subunit of DNA …); assay: ITC, peptide 400 µM into β ring 20 µM, 25 °C
# [16] = target: T1, E. coli β clamp (β subunit of DNA …); assay: ITC, peptide 400 µM into β ring 20 µM, 25 °C, second experiment
# [17] = target: T1, E. coli β clamp (β subunit of DNA …); assay: from ITC data; compared residues F/pBrF
# [18] = target: T1, E. coli β clamp (β subunit of DNA …); assay: from ITC data; compared residues pMeF/pBrF
# [19] = target: T2, E. coli β clamp (β subunit of DNA polymerase III, dnaN gene product), N-tagged (E. coli, UniProt P0A988 1-366); assay: SPR competition against P1
# T2 construct: The dnaN gene was cloned in pET15b and expressed in BL21 E. coli; also called β ring; β protein; not shown: N-terminal tag from the pET15b vector (N-tagged protein, enriched on Ni-NTA)
# [20] = target: T2, E. coli β clamp (β subunit of DNA …); assay: SPR competition on immobilised P1
# [21] = target: T2, E. coli β clamp (β subunit of DNA …); assay: cell-based or functional assay
# [22] = target: T2, E. coli β clamp (β subunit of DNA …); assay: ITC, peptide 400 µM into β ring 30 µM, 25° C
# [23] = target: T2, E. coli β clamp (β subunit of DNA …); assay: SPR competition on immobilised P1; ΔG = -RT ln Ki
# [24] = target: T2, E. coli β clamp (β subunit of DNA …); assay: SPR direct binding: β protein (0.125 µM to 2 µM) injected on immobilised P1, 1:1 Langmuir model
# [25] = target: T2, E. coli β clamp (β subunit of DNA …); assay: SPR competition (Biacore 3000): β ring 0.25 µM mixed with the challenger, injected on immobilised P1
# [26] = target: T1, E. coli β clamp (β subunit of DNA …); assay: from ITC data; compared residues L/Cha
# [27] = target: T1, E. coli β clamp (β subunit of DNA …); assay: ITC, peptide 400 µM into β ring 30 µM, 25 °C
# [28] = target: T1, E. coli β clamp (β subunit of DNA …); assay: ITC, peptide 400 µM into β ring 30 µM, 25 °C, second experiment
# [29] = target: T1, E. coli β clamp (β subunit of DNA …); assay: SPR competition, concentration of peptide that challenges 50% of the binding of β ring to P1
# [30] = target: T1, E. coli β clamp (β subunit of DNA …); assay: from ITC data; compared residues F/pMeF
# [31] = target: T1, E. coli β clamp (β subunit of DNA …); assay: from ITC data; compared residues F/diClF
# [32] = target: T1, E. coli β clamp (β subunit of DNA …); assay: from ITC data; compared residues pBrF/diClF
# [33] = target: T1, E. coli β clamp (β subunit of DNA …); assay: from ITC data; compared residues pClF/diClF
# [34] = target: T1, E. coli β clamp (β subunit of DNA …); assay: from ITC data; compared residues pMeF/diClF
# Chain of E. coli β clamp (β subunit of DNA polymerase III, dnaN gene product), N-tagged (E. coli) (P0A988 whole entry): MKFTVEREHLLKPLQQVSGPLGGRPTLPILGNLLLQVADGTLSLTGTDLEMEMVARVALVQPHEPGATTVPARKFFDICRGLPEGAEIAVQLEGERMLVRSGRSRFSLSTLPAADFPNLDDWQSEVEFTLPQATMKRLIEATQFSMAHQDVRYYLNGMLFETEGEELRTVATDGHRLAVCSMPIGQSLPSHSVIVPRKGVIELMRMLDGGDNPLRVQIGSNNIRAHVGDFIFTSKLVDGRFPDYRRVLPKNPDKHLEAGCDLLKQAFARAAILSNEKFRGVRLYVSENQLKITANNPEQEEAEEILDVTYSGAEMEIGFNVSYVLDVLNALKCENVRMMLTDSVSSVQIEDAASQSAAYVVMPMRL
# T1 sequence (P0A988 whole entry): as above
# Chain of E. coli β clamp (β subunit of DNA polymerase III, dnaN gene product) (E. coli) (P0A988 whole entry): as above
# T2 sequence (P0A988 whole entry): as above
molecule,measurement,setting,value
P14 (Ac-Q Cha DL diClF) (peptide),Kd,[1],60 nM
same,"IC50, Pol IV based biochemical assay (inhibition of β dependent Pol IV elongation)",[2],125 nM
same,fold increase in binding against P6,[3],10 to 15 fold
same,IC50,[4],70 nM
same,fold increase against P1,[4],115 fold
same,fold increase against P6,[4],15 fold
same,fold increase against the full PolIV enzyme,[4],4 fold
same,Kd,[5],65 nM
P3 (RQLVLF) (peptide; other documents disagree on this pair),IC50,[6],8620 nM
same,Kd,[7],2820 nM
same,ΔG,[7],-7.5 kcal/mol
same,ΔH,[7],-5.77 kcal/mol
same,ΔS,[7],6.05 cal/mol/deg
same,ΔG,[8],-7.04 kcal/mol
same,Kd,[9],2320 nM
same,ΔG,[9],-7.6 kcal/mol
same,ΔH,[9],-5.7 kcal/mol
same,ΔS,[9],6.6 cal/mol/deg
same,IC50,[10],8620 nM
B1,ΔΔG (ΔGj - ΔGi) of P12 against P7,[11],-0.6 kcal/mol
same,IC50,[12],160 nM
same,ΔΔG (ΔGj - ΔGi) of P12 against P13,[13],-0.32 kcal/mol
same,ΔΔG (ΔGj - ΔGi) of P12 against P11,[14],-0.85 kcal/mol
same,Kd,[15],89 nM
same,ΔG,[15],-9.6 kcal/mol
same,ΔH,[15],-15 kcal/mol
same,ΔS,[15],-18.1 cal/mol/deg
same,Kd,[16],122 nM
same,ΔG,[16],-9.4 kcal/mol
same,ΔH,[16],-14.3 kcal/mol
same,ΔS,[16],-16.3 cal/mol/deg
B2,ΔΔG (ΔGj - ΔGi) of P13 against P7,[17],-0.28 kcal/mol
same,IC50,[12],96 nM
same,ΔΔG (ΔGj - ΔGi) of P13 against P11,[18],-0.53 kcal/mol
same,Kd,[15],136 nM
same,ΔG,[15],-9.3 kcal/mol
same,ΔH,[15],-18.1 kcal/mol
same,ΔS,[15],-29.3 cal/mol/deg
same,Kd,[16],167 nM
same,ΔG,[16],-9.1 kcal/mol
same,ΔH,[16],-15.2 kcal/mol
same,ΔS,[16],-20.2 cal/mol/deg
B3,fold decrease in affinity against P14,[19],2 fold
same,fold increase in the interaction against P6,[20],6 fold
same,"IC50, Pol IV based biochemical assay (inhibition of β dependent Pol IV elongation)",[21],2800 nM
B4,fold less efficient binding than the whole polymerase (PolIV),[20],30 fold
same,Kd,[22],1000 to 2000 nM
same,ΔG,[23],-7.06 kcal/mol
same,Kd,[24],285 nM
same,IC50,[25],8850 nM
B5,ΔΔG (ΔGj - ΔGi) of P7 against P6,[26],-0.66 kcal/mol
same,IC50,[12],170 nM
same,Kd,[27],246 nM
same,ΔG,[27],-8.9 kcal/mol
same,ΔH,[27],-21.3 kcal/mol
same,ΔS,[27],-41.2 cal/mol/deg
same,Kd,[28],222 nM
same,ΔG,[28],-8.9 kcal/mol
same,ΔH,[28],-20.5 kcal/mol
same,ΔS,[28],-38.5 cal/mol/deg
same,Ki,[29],170 nM
B6,ΔΔG (ΔGj - ΔGi) of P11 against P7,[30],0.25 kcal/mol
same,IC50,[12],260 nM
same,Kd,[15],401 nM
same,ΔG,[15],-8.6 kcal/mol
same,ΔH,[15],-14.8 kcal/mol
same,ΔS,[15],-20.4 cal/mol/deg
same,Kd,[16],362 nM
same,ΔG,[16],-8.6 kcal/mol
same,ΔH,[16],-14.4 kcal/mol
same,ΔS,[16],-19 cal/mol/deg
B7,ΔΔG (ΔGj - ΔGi) of P14 against P7,[31],-0.8 kcal/mol
same,IC50,[12],77 nM
same,ΔΔG (ΔGj - ΔGi) of P14 against P13,[32],-0.52 kcal/mol
same,ΔΔG (ΔGj - ΔGi) of P14 against P12,[33],-0.2 kcal/mol
same,ΔΔG (ΔGj - ΔGi) of P14 against P11,[34],-1.05 kcal/mol
same,Kd,[15],73 nM
same,ΔG,[15],-9.6 kcal/mol
same,ΔH,[15],-18.9 kcal/mol
same,ΔS,[15],-30.8 cal/mol/deg
same,Kd,[16],55 nM
same,ΔG,[16],-9.8 kcal/mol
same,ΔH,[16],-18.1 kcal/mol
same,ΔS,[16],-27.6 cal/mol/deg
same,Ki,[29],85 nM
